Measured values taken from patent US20090324614A1 (published 2009).

T1: soluble rat FcRn (rat, UniProt P13599 23-298; P07151 21-119, limits assumed)
T1 construct: also called sol rat FcRn
T1 sequence: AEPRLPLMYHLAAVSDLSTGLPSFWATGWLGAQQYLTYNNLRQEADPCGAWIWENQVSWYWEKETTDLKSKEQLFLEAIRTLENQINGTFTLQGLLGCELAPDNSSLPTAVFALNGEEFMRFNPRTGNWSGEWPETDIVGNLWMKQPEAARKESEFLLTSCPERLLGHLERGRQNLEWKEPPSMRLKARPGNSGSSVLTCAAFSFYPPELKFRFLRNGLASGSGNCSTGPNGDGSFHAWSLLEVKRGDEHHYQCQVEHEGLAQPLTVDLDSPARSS
T1 sequence (b2m): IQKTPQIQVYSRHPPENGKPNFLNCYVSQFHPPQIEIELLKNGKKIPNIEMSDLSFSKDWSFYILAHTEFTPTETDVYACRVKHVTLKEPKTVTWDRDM

T2: rat FcRn/rat β2M expressed on cells (rat, UniProt P13599 23-366; P07151 21-119)
T2 construct: Cells from Neil Simister (Brandeis); also called rat FcRn (cells); rat fibroblasts expressing rat FcRn
T2 sequence: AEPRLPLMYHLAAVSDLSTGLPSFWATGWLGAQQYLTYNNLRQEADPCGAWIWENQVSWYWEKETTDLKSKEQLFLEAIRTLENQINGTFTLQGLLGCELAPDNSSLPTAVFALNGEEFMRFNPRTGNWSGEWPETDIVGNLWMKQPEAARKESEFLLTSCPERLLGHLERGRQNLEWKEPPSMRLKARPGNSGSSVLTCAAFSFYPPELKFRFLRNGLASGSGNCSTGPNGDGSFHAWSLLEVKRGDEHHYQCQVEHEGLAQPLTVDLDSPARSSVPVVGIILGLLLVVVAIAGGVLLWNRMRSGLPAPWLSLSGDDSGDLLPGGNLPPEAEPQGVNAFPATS
T2 sequence (b2m): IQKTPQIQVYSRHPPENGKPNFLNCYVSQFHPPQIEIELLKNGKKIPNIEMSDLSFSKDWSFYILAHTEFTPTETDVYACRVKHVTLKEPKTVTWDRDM


Tests used:
[1] = biological target: T3, soluble human FcRn (shFcRn) (human, UniProt P55899 24-297; P61769 21-119); assay: SPR 8500, hFcRn pH 6 (Table 12B)
T3 construct: also called soluble hFcRn; sol hFcRn

[2] = biological target: T4, human FcRn/human β2M expressed by cells (293 C11 cells) (human, UniProt P55899 24-365; P61769 21-119); assay: FACS (blocking), IgG, hFcRn cells, pH 6
T4 construct: HEK 293 cells engineered to overexpress FcRn; Whole entries named; also called hFcRn (cells); hFcRn in THP-1 and Caco-2 cells

[3] = biological target: T3, soluble human FcRn (shFcRn); assay: Biacore, IgG immobilized, hFcRn flowed, pH 7.4
[4] = biological target: T3, soluble human FcRn (shFcRn); assay: SPR 8500, IgG, pH 7.5
[5] = biological target: T1, soluble rat FcRn; assay: SPR 8500, IgG, pH 7.5
[6] = biological target: T1, soluble rat FcRn; assay: SPR 8500, rat FcRn pH 6 (Table 12D)
[7] = biological target: T3, soluble human FcRn (shFcRn); assay: Biacore, IgG immobilized, hFcRn flowed, pH 7.4; remark: listed apart in the source
[8] = biological target: T3, soluble human FcRn (shFcRn); assay: SPR 8500, IgG, pH 6
[9] = biological target: T1, soluble rat FcRn; assay: SPR 8500, IgG, pH 6
[10] = biological target: T3, soluble human FcRn (shFcRn); assay: Biacore, pH 7.4
[11] = biological target: T3, soluble human FcRn (shFcRn); assay: Biacore, hFcRn immobilized, IgG flowed, pH 7.4
[12] = biological target: T3, soluble human FcRn (shFcRn); assay: Biacore, IgG immobilized, hFcRn flowed, pH 6
[13] = biological target: T3, soluble human FcRn (shFcRn); assay: SPR 8500, hFcRn pH 7.4 (Table 12C)
[14] = biological target: T1, soluble rat FcRn; assay: SPR 8500, rat FcRn pH 7.4 (Table 12E)
[15] = biological target: T3, soluble human FcRn (shFcRn); assay: Biacore, hFcRn immobilized, IgG flowed, pH 6
[16] = biological target: T2, rat FcRn/rat β2M expressed on cells; assay: FACS blocking of IgG-Fc, IgG, pH 6
[17] = biological target: T4, human FcRn/human β2M expressed by cells …; assay: FACS blocking of IgG-Fc, IgG, pH 6
[18] = biological target: T1, soluble rat FcRn; assay: SPR 8500, rat FcRn pH 6 (Table 11D)
[19] = biological target: T3, soluble human FcRn (shFcRn); assay: SPR 8500, hFcRn pH 6 (Table 11B)
[20] = biological target: T3, soluble human FcRn (shFcRn); assay: SPR 8500, hFcRn pH 7.4 (Table 11C)

Kd [1] [nM] | koff [1] [s⁻¹] | kon [1] [M⁻¹ s⁻¹] | IC50 [2] [nM] | Kd [3] [nM] | koff [3] [s⁻¹] | kon [3] [M⁻¹ s⁻¹] | Kd [7] [nM] | koff [7] [s⁻¹] | kon [7] [M⁻¹ s⁻¹] | K off Fold improvement over DX2500 [10] [fold] | Kd [11] [nM] | koff [11] [s⁻¹] | kon [11] [M⁻¹ s⁻¹] | Kd [12] [nM] | koff [12] [s⁻¹] | kon [12] [M⁻¹ s⁻¹] | Kd [15] [nM] | koff [15] [s⁻¹] | kon [15] [M⁻¹ s⁻¹] | Binder | further results
2.44 | 0.00248 | 1.02e+06 | 0.43 | 18.6 | 0.00299 | 161000 | 20.5 | 0.00373 | 181000 | 7 | 0.772 | 0.000702 | 909000 | 10.3 | 0.00312 | 303000 | 0.118 | 0.000252 | 2.13e+06 | 532A-M0090-F11 IgG (antibody) chain 1: not shown chain 2: QSVLTQPASVSGSPGQSITISCTGTGSDVGSYNLVSWYQKYPGKAPKLIIYGDSQRPSGLSSRFSGSKSGNSASLTISGLQAEDEADYYCCSYAGSGIYVFGSGTKVTVLSQPKANPTVTLFPPSSEELQANKATLVCLISDFYPGAVTVAWKADGSPVKAGVETTKPSKQSNNKYAASSYLSLTPEQWKSHRSYSCQVTHEGSTVEKTVAPAECS | Kd [4]: 10.8 nM; Kd [5]: 9.14 nM; Kd [6]: 9.8 nM; koff [6]: 0.00117 s⁻¹; kon [6]: 119000 M⁻¹ s⁻¹; Kd [8]: 2.44 nM; Kd [9]: 9.8 nM; K off Fold improvement over M90-F11 [10]: 1 fold; KD Fold improvement over DX2500 [10]: 5 fold; KD Fold improvement over M90-F11 [10]: 1 fold; Kd [13]: 10.8 nM; koff [13]: 0.00173 s⁻¹; kon [13]: 159000 M⁻¹ s⁻¹; Kd [14]: 9.14 nM; koff [14]: 0.00114 s⁻¹; kon [14]: 125000 M⁻¹ s⁻¹; IC50 [16]: 4.9 nM; IC50 [17]: 2.6 nM
 |  |  | 0.38 |  |  |  | 35.2 | 0.0152 | 433000 |  | 0.779 | 0.000776 | 996000 | 29.9 | 0.0172 | 574000 | 0.172 | 0.000764 | 4.45e+06 | 532A-M0090-F11 (germlined LC changes) IgG (antibody) chain 1: not shown chain 2: QSALTQPASVSGSPGQSITISCTGTGSDVGSYNLVSWYQQHPGKAPKLMIYGDSQRPSGVSNRFSGSKSGNTASLTISGLQAEDEADYYCCSYAGSGIYVFGTGTKVTVLGQPKANPTVTLFPPSSEELQANKATLVCLISDFYPGAVTVAWKADGSPVKAGVETTKPSKQSNNKYAASSYLSLTPEQWKSHRSYSCQVTHEGSTVEKTVAPTECS | 
 |  |  | 0.65 | 87.9 | 0.0197 | 224000 |  |  |  | 1 | 0.268 | 0.000338 | 1.26e+06 | 27.6 | 0.0177 | 642000 | 0.16 | 0.000336 | 2.11e+06 | DX-2500 (germlined LC & allotype HC changes) (antibody) chain 1: not shown chain 2: QSALTQPASVSGSPGQSITISCTGTGSDVGSYNLVSWYQQHPGKAPKLMIYGDSQRPSGVSNRFSGSKSGNTASLTISGLQAEDEADYYCCSYAGSGIYVFGTGTKVTVLGQPKANPTVTLFPPSSEELQANKATLVCLISDFYPGAVTVAWKADGSPVKAGVETTKPSKQSNNKYAASSYLSLTPEQWKSHRSYSCQVTHEGSTVEKTVAPTECS | K off Fold improvement over M90-F11 [10]: 0.15 fold; KD Fold improvement over DX2500 [10]: 1 fold; KD Fold improvement over M90-F11 [10]: 0.21 fold
0.409 | 0.00094 | 2.3e+06 |  |  |  |  |  |  |  |  |  |  |  |  |  |  |  |  |  | 3B3 mouse anti-human FcRn IgG (antibody) chain 1: VKLQESGPELVKPGASVKISCKASGYAFSRSWMNWVKQRPGQGLEWIGRIHPGDGDTNYNGKFKGKATLTVAKSSSTAYMQLSSLTSVDSAVYFCANEGSPYFDYWGQGTTLTVSS chain 2: DIQLTQSPTTVAASPGEKITITCSASSSISSNYLHWYQQKPGFSPKLLIYRTSNLASGVPARFSGSGSGTSYSLTIGTMEAEDVATYYCQQGSNIPLTFGAGTKLELKRADAAPTVSIFPPSSEQLTSGGASVVCFLNNFYPKDINVKWKIDGSERQNGVLNSWTDQDSKDSTYSMSSTLTLTKDEYERHNSYTCEATHKTSTSPIVKSFNKNE | Kd [18]: 1.5 nM; koff [18]: 0.00104 s⁻¹; kon [18]: 683000 M⁻¹ s⁻¹; Kd [19]: 0.34 nM; koff [19]: 0.00131 s⁻¹; kon [19]: 3.82e+06 M⁻¹ s⁻¹; Kd [13]: 0.675 nM; koff [13]: 0.0023 s⁻¹; kon [13]: 3.41e+06 M⁻¹ s⁻¹; IC50 [17]: 9.7 nM; Kd [20]: 0.593 nM; koff [20]: 0.00176 s⁻¹; kon [20]: 2.97e+06 M⁻¹ s⁻¹
